The test deals with BACE1-GFP (UniProt P56817). In words: co-IP.

1 substance from paper doi:10.1101/2021.06.09.447716 can be followed below.

Sequence of UniProt P56817 (P56817 46-501): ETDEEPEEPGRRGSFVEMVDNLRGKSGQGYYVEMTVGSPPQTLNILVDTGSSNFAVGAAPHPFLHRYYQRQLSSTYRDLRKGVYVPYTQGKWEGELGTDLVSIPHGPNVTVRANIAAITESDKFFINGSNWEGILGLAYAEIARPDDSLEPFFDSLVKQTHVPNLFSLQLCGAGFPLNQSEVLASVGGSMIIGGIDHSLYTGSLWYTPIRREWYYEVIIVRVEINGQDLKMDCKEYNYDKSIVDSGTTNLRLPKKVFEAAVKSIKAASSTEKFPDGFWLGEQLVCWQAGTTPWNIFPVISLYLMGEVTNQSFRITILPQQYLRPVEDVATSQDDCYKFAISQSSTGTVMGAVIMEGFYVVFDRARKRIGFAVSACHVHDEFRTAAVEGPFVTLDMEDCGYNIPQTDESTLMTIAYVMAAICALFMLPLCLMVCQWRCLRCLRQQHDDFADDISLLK

The substance “Bin1-KR (neuronal Bin1-MYC with the LOAD mutation K358R, rs138047593) (from UniProt O08539-1 1-588) (natural protein)” displayed a reduction of co-immunoprecipitated Bin1 against Bin1-WT of 65%.
